Results: patent publication US20140314744A1
pKd: −log10 of the molar value.

Molecular target: Recombinant human Fc-tagged MCAM IgG1-2A (human) (UniProt P43121)
Assay: SPR (Biacore T200), steady state, MCAM IgG1-2A captured by anti-Fc IgG, laminin in solution

Chain of Recombinant human Fc-tagged MCAM IgG1-2A (human) (P43121 19-242): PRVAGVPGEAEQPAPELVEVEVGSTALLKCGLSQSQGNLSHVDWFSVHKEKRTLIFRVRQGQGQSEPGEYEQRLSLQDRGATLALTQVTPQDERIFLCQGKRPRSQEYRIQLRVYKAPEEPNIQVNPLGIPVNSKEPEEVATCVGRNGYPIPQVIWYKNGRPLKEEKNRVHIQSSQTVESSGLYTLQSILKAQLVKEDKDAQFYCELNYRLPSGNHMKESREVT

pKd: 7.18
Substance: Recombinant human laminin 411 (Biolamina) (from UniProt Q16363 25-1823; P07942 22-1786; P11047 34-1609) (ligand)
